What was measured:
Test in all cases: holdup assay
Parameters in all cases: key: below the threshold = too weak to quantify, mostly under pKd 3.1 to 4
Details in all cases: plain residues with an end cap or a label only (N-terminal biotin on a linker: ado-ado)
DLG2_2, Q15700 = target: DLG2_2, Q15700
Inadl_3, Q8NI35 = target: Inadl_3, Q8NI35
SNTG2, Q9NY99 = target: T1, SNTG2, Q9NY99
T1 sequence (Q9NY99 68-166, limits assumed, looked up): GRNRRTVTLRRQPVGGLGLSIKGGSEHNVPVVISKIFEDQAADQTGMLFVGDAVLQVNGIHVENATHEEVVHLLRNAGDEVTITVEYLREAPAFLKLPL

LAP2, Q96RT1 = target: LAP2, Q96RT1
Chain of LAP2, Q96RT1 (Q96RT1 other isoform, or with tags, fused parts or gaps): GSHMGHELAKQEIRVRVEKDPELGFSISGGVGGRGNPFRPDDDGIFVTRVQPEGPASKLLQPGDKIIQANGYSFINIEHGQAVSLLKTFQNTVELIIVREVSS

TIAM2, Q8IVF5 = target: T2, TIAM2, Q8IVF5
T2 sequence (Q8IVF5 885-986, limits assumed, looked up): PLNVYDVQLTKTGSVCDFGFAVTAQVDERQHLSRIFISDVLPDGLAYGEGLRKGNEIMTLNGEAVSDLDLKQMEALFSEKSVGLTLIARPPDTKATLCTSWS

NHERF3_4, Q5T2W1 = target: T3, NHERF3_4, Q5T2W1
T3 sequence (Q5T2W1 373-468, limits assumed, looked up): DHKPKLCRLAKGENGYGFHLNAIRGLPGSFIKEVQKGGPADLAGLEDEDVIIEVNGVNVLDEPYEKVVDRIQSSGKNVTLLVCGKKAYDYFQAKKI

HTRA4, P83105 = target: T4, HTRA4, P83105
T4 sequence (P83105 378-476, limits assumed, looked up): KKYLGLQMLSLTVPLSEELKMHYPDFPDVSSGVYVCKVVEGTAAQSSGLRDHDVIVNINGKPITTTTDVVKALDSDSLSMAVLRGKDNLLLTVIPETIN

DLG1_3, Q12959 = target: DLG1_3, Q12959
Chain of DLG1_3, Q12959 (Q12959 457-571): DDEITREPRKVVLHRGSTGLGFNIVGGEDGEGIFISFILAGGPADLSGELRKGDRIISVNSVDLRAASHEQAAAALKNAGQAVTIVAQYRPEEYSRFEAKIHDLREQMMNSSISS

PDZRN3_1, Q9UPQ7 = target: T5, PDZRN3_1, Q9UPQ7
T5 sequence (Q9UPQ7 244-349, limits assumed, looked up): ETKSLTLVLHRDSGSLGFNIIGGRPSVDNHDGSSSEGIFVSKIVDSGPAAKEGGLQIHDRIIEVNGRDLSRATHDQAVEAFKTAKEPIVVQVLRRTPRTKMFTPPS

FRMPD2_2, Q68DX3 = target: FRMPD2_2, Q68DX3
Chain of FRMPD2_2, Q68DX3 (Q68DX3 944-1038): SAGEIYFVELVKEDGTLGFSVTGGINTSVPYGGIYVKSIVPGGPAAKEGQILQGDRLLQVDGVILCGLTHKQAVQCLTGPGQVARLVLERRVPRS

TJP1_3, Q07157 = target: TJP1_3, Q07157
Chain of TJP1_3, Q07157 (Q07157 416-512): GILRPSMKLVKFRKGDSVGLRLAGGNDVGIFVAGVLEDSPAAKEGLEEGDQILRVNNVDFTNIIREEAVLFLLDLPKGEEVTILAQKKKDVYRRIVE

MAGI2_4, Q86UL8 = target: MAGI2_4, Q86UL8
Chain of MAGI2_4, Q86UL8 (Q86UL8 772-865): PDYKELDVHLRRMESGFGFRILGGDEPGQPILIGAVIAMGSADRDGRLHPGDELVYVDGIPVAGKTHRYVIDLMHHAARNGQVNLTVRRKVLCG

PDZD2_2, O15018 = target: T6, PDZD2_2, O15018
T6 sequence (O15018 329-429, limits assumed, looked up): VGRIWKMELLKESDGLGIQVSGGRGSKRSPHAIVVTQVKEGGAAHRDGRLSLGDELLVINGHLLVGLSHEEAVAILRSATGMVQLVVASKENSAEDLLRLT

SNTB1, Q13884 = target: T7, SNTB1, Q13884
T7 sequence (Q13884 107-205, limits assumed, looked up): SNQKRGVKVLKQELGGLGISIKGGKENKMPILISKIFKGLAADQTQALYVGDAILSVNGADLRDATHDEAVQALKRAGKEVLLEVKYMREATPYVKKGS

APBA3_1, O96018 = target: T8, APBA3_1, O96018
T8 sequence (O96018 389-490, limits assumed, looked up): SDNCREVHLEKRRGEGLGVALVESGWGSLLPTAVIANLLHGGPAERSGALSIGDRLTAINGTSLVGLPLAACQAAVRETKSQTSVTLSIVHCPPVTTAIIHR

LNX2_3, Q8N448 = target: T9, LNX2_3, Q8N448
T9 sequence (Q8N448 463-564, limits assumed, looked up): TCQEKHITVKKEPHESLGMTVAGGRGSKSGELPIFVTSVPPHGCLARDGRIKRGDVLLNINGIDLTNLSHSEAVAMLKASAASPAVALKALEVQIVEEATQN

SNX27, Q96L92 = target: SNX27, Q96L92
SCRIB_2, Q14160 = target: SCRIB_2, Q14160
Chain of SCRIB_2, Q14160 (Q14160 857-960): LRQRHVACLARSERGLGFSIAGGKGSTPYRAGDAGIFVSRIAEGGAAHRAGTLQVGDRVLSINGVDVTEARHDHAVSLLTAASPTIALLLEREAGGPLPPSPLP

Inadl_6, Q8NI35 = target: Inadl_6, Q8NI35
Chain of Inadl_6, Q8NI35 (Q8NI35 1058-1167): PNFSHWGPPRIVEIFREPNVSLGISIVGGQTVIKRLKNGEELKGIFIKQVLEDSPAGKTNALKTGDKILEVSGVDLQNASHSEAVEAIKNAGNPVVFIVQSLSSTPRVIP

ARHGEF11, O15085 = target: T10, ARHGEF11, O15085
T10 sequence (O15085 42-136, limits assumed, looked up): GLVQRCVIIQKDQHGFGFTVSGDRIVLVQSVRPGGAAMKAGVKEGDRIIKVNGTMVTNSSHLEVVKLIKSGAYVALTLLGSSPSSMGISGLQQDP

GRIP1_4, Q9Y3R0 = target: T11, GRIP1_4, Q9Y3R0
T11 sequence (Q9Y3R0 467-571, limits assumed, looked up): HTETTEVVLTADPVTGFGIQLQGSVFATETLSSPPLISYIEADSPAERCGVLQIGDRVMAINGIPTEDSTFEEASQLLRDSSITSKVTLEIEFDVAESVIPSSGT

AHNAK1, Q09666 = target: AHNAK1, Q09666
Chain of AHNAK1, Q09666 (Q09666 4-100): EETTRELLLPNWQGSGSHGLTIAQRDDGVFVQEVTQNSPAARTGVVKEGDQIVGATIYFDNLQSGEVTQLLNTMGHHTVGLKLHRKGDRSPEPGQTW

LNX1_2, Q8TBB1 = target: LNX1_2, Q8TBB1
Chain of LNX1_2, Q8TBB1 (Q8TBB1 371-470): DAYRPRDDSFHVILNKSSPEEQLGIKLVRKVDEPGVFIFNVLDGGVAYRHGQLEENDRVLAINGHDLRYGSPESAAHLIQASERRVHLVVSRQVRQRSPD

IL16_4, Q14005 = target: IL16_4, Q14005
Chain of IL16_4, Q14005 (Q14005 1229-1329): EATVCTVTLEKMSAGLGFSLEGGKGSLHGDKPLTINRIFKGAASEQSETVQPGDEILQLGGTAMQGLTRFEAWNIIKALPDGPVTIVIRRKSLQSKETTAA

LIN7C, Q9NUP9 = target: T12, LIN7C, Q9NUP9
T12 sequence (Q9NUP9 88-185, limits assumed, looked up): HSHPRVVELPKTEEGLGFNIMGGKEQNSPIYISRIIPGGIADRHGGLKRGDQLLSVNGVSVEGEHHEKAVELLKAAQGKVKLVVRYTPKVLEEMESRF

LNX1_3, Q8TBB1 = target: LNX1_3, Q8TBB1
Chain of LNX1_3, Q8TBB1 (Q8TBB1 500-596): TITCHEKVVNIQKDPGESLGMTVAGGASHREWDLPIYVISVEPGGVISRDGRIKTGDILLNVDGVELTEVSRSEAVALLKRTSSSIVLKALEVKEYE

Chain of DLG2_2, Q15700 (Q15700 189-283): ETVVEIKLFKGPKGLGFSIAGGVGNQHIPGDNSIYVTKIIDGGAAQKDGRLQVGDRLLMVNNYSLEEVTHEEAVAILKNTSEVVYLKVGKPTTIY
Chain of Inadl_3, Q8NI35 (Q8NI35 359-469): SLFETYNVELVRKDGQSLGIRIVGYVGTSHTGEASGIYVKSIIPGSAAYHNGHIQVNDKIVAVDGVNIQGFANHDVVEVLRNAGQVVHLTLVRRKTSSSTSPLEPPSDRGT

Binder: KEKASTETEC [TRPM1, Q7Z4N2]
- pKd (DLG2_2, Q15700): 3.52
- pKd (Inadl_3, Q8NI35): below the threshold
- pKd (SNTG2, Q9NY99): below the threshold
- pKd (LAP2, Q96RT1): 3.67
- pKd (TIAM2, Q8IVF5): below the threshold
- pKd (NHERF3_4, Q5T2W1): below the threshold
- pKd (HTRA4, P83105): below the threshold
- pKd (DLG1_3, Q12959): below the threshold
- pKd (PDZRN3_1, Q9UPQ7): below the threshold
- pKd (FRMPD2_2, Q68DX3): below the threshold
- pKd (TJP1_3, Q07157): below the threshold
- pKd (MAGI2_4, Q86UL8): below the threshold
- pKd (PDZD2_2, O15018): below the threshold
- pKd (SNTB1, Q13884): 4.17
- pKd (APBA3_1, O96018): below the threshold
- pKd (LNX2_3, Q8N448): below the threshold
- pKd (SNX27, Q96L92): 4.53
- pKd (SCRIB_2, Q14160): 3.52
- pKd (Inadl_6, Q8NI35): below the threshold
- pKd (ARHGEF11, O15085): below the threshold
- pKd (GRIP1_4, Q9Y3R0): below the threshold
- pKd (AHNAK1, Q09666): below the threshold
- pKd (LNX1_2, Q8TBB1): below the threshold
- pKd (IL16_4, Q14005): below the threshold
- pKd (LIN7C, Q9NUP9): 3.93
- pKd (LNX1_3, Q8TBB1): below the threshold

Binder: QKASRNESTF [POLR1D, P0DPB6]
- pKd (DLG2_2, Q15700): below the threshold
- pKd (Inadl_3, Q8NI35): below the threshold
- pKd (SNTG2, Q9NY99): below the threshold
- pKd (LAP2, Q96RT1): below the threshold
- pKd (TIAM2, Q8IVF5): 3.92
- pKd (NHERF3_4, Q5T2W1): below the threshold
- pKd (HTRA4, P83105): below the threshold
- pKd (DLG1_3, Q12959): below the threshold
- pKd (PDZRN3_1, Q9UPQ7): below the threshold
- pKd (FRMPD2_2, Q68DX3): below the threshold
- pKd (TJP1_3, Q07157): below the threshold
- pKd (MAGI2_4, Q86UL8): 3.88
- pKd (PDZD2_2, O15018): below the threshold
- pKd (SNTB1, Q13884): below the threshold
- pKd (APBA3_1, O96018): below the threshold
- pKd (LNX2_3, Q8N448): below the threshold
- pKd (SNX27, Q96L92): 4.29
- pKd (SCRIB_2, Q14160): below the threshold
- pKd (Inadl_6, Q8NI35): below the threshold
- pKd (ARHGEF11, O15085): below the threshold
- pKd (GRIP1_4, Q9Y3R0): below the threshold
- pKd (AHNAK1, Q09666): below the threshold
- pKd (LNX1_2, Q8TBB1): below the threshold
- pKd (IL16_4, Q14005): below the threshold
- pKd (LIN7C, Q9NUP9): below the threshold
- pKd (LNX1_3, Q8TBB1): below the threshold

Binder: KIEDVEITLV [FCHSD2, O94868]
- pKd (DLG2_2, Q15700): 3.74
- pKd (Inadl_3, Q8NI35): 4.43
- pKd (SNTG2, Q9NY99): 3.58
- pKd (LAP2, Q96RT1): 3.84
- pKd (TIAM2, Q8IVF5): below the threshold
- pKd (NHERF3_4, Q5T2W1): below the threshold
- pKd (HTRA4, P83105): 4.54
- pKd (DLG1_3, Q12959): 3.59
- pKd (PDZRN3_1, Q9UPQ7): below the threshold
- pKd (FRMPD2_2, Q68DX3): 4.76
- pKd (TJP1_3, Q07157): below the threshold
- pKd (MAGI2_4, Q86UL8): 4.07
- pKd (PDZD2_2, O15018): 4.64
- pKd (SNTB1, Q13884): 3.95
- pKd (APBA3_1, O96018): below the threshold
- pKd (LNX2_3, Q8N448): below the threshold
- pKd (SNX27, Q96L92): 5.01
- pKd (SCRIB_2, Q14160): below the threshold
- pKd (Inadl_6, Q8NI35): 4.23
- pKd (ARHGEF11, O15085): 4.42
- pKd (GRIP1_4, Q9Y3R0): below the threshold
- pKd (AHNAK1, Q09666): below the threshold
- pKd (LNX1_2, Q8TBB1): 4.55
- pKd (IL16_4, Q14005): below the threshold
- pKd (LIN7C, Q9NUP9): 4.11
- pKd (LNX1_3, Q8TBB1): below the threshold
